According to US20090181025A1 (published 2009):

Tests used:
[1] = target: T1, CD54 endogenous in bone marrow-derived mature dendritic cells (mouse, UniProt P13597 28-537); test: co-immunoprecipitation from mature dendritic cells (1% digitonin lysate): anti-CD54 IP, immunoblot with anti-FcRγ chain antibody
T1 construct: Control membrane protein in the co-immunoprecipitation; also called another cell membrane protein CD54
Method: Moreover, bone marrow-derived mature dendritic cells were solubilized in a cell lysis buffer containing 1% digitonin. Immunoprecipitation was carried out using rat IgG as a negative control, anti-mTARM antibody #21, an anti-CD54 antibody and an anti-FcRγ chain antibody, and immunoblot analysis was then carried out using an anti-FcRγ chain antibody.

[2] = target: T2, mouse TARM protein, isoform m1, expressed on B300.19 cells (mouse, UniProt B6A8R8 17-288); test: co-immunoprecipitation from B300.19 transfectants (1% digitonin lysate): anti-Flag IP, immunoblot with anti-mTARM #6
T2 construct: In the co-immunoprecipitation the cells were solubilized in 1% digitonin; also called mTARM; mTARM-expressing cells
T2 sequence: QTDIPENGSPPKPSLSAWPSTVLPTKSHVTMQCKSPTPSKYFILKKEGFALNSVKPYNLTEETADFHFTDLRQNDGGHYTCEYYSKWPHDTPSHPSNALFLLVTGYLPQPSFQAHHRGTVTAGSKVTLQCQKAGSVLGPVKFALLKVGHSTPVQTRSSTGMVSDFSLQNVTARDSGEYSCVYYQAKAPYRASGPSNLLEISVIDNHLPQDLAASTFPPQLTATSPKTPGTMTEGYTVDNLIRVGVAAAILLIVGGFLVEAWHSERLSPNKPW
Method: B300.19 transfectants were solubilized in a cell lysis buffer containing 1% digitonin (1% digtonin/50 mM Tris-HCl (pH 7.5)/150 mM NaCl/5 mM NaF/1 mM orthovanadate/Complete™ (Roche)). Immunoprecipitation was carried out using an anti-Flag antibody, and immunoblot analysis was then carried out using anti-mTARM antibody #6.

[3] = target: AP protein used as a negative control (human, UniProt P05187 23-511); test: FACS of AP protein on mTARM-L-expressing B300.19 cells, detected with anti-PLAP antibody
Chain of AP protein used as a negative control (P05187 23-511): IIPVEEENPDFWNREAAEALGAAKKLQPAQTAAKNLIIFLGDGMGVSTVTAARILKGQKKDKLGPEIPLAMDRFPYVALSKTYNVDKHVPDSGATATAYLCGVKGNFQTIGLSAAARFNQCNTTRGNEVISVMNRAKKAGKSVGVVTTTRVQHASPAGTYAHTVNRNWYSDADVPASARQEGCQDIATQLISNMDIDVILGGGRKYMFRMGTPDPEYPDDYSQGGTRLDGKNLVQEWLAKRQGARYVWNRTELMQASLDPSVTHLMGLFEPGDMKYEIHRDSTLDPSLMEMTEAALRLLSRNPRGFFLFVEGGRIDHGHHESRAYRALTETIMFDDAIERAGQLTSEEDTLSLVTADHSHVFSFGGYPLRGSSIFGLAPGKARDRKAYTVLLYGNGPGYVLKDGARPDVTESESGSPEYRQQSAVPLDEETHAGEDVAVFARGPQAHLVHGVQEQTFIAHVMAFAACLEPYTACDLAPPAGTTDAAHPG

T1 sequence (P13597 28-537 limits assumed): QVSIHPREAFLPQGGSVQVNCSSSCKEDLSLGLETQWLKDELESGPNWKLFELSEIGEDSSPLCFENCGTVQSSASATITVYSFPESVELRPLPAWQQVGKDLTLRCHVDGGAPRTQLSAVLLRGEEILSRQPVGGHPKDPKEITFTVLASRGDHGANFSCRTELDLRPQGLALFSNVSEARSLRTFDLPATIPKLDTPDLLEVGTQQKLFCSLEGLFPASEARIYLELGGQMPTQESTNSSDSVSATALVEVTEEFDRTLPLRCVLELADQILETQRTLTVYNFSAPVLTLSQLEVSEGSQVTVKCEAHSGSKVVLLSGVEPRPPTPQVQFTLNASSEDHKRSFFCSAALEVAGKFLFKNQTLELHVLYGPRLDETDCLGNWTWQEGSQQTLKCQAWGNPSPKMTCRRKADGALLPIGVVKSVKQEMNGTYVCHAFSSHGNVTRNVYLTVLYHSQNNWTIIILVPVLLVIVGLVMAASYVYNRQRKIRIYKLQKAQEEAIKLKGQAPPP

Binder	binding result [2]	other results
FcRγ chain endogenous in bone marrow-derived mature dendritic cells (other, mouse, UniProt P20491 19-86, looked up, Native protein from lysate of mouse dendritic cells) LGEPQLCYILDAVLFLYGIVLTLLYCRLKIQVRKAAIASREKADAVYTGLNTRSQETYETLKHEKPPQ		binding result [1]: no binding
Flag tagged DAP12 expressed in B300.19 transfectants (other, UniProt O54885 22-114, looked up, GenBank NM-011662 is printed; The fragment limits are set only by the primers; not shown: N-terminal Flag tag from vector pMXII IRES-Puro) LSPVQAQSDTFPRCDCSSVSPGVLAGIVLGDLVLTLLIALAVYSLGRLVSRGQGTAEGTRKQHIAETESPYQELQGQRPEVYSDLNTQRQYYR	no binding	
Flag tagged DAP10 expressed in B300.19 transfectants (other, UniProt Q9QUJ0 18-79, looked up, GenBank AF072846 is printed; The fragment limits are set only by the primers; not shown: N-terminal Flag tag from vector pMXII IRES-Puro) SQTSAGSCSGCGTLSLPLLAGLVAADAVMSLLIVGVVFVCMRPHGRPAQEDGRVYINMPGRG	no binding	
mouse TARM-L (TARM ligand) expressed on B300.19 cells (ligand, also called mTARM-L; mTARM-L candidate) LEISADAHVRGYVGEKIKLKCTFKSSSDVTDKLTIDWTYRPPSSSRTESIFHYQSFQYPTTAGTFRDRISWAGNVYKGDASISISNPTLKDNGTFSCAVKNPPDVYHNIPLTELTVTERGFGTMLSSVALLSILVFVPSAVVVILLLVRMGRKATGVQKRSRSGYKKSSIEVSDDTDQEDSNDCMTRLCVRCAECLDSDYEEEAY		binding result [3]: no binding (tested: 30 µg/ml (method of Example 5))
